Measurements from US20220242962A1 (APTEVO RESEARCH AND DEVELOPMENT, published 2022).

T1: Fc gamma receptor RIIB/C on CHO-K1SV cells (human, UniProt P31994 43-310)
T1 construct: whole, on cells
T1 sequence (looked up): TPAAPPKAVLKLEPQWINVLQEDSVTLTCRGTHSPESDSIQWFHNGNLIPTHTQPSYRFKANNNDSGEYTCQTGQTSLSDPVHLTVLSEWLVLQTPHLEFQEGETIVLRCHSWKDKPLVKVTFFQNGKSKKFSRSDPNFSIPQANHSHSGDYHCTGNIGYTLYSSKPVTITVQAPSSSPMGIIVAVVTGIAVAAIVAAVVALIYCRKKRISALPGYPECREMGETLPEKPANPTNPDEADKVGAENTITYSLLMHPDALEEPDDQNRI

T2: Full-length Cyno 4-1BB (cynomolgus monkey, UniProt Q07011 24-255 (human entry))
T2 construct: on Jurkat or CHO cells; also called FOB006; cynomolgus 4-1BB
T2 chain: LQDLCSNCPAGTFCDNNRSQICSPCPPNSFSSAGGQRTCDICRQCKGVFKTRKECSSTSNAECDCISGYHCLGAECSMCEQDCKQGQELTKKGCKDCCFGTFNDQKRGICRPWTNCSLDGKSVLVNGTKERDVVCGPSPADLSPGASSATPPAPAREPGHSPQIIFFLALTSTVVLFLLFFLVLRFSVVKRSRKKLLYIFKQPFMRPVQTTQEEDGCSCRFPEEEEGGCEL

T3: Full-length Human OX40 (human, UniProt P43489 29-277)
T3 construct: also called OXF001; human OX40/CHO
T3 sequence: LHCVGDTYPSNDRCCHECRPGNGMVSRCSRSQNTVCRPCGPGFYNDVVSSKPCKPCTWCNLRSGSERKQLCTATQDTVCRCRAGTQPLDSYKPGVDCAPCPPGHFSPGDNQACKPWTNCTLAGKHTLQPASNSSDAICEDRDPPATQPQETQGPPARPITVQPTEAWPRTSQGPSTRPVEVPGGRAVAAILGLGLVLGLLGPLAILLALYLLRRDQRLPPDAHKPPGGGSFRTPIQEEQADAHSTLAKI


Key:
[1] = target: T4, C1Q (UniProt P02745 23-245; P02746 28-253; P02747 29-245); test: SPR, Fc captured, C1Q as analyte
T4 construct: also called complement C1Q
Procedure: Fc mutations to be potentially integrated into an ADAPTIR™ bispecific construct were analyzed for binding to the common Fc receptors (human and cyno) and C1Q, which is a component of the complement activation system. SPR experiments were conducted at 25° C. in HBS-EP+ buffer on a Biacore T200 system.
For these experiments, all four flow cells of a CM5 sensor chip were immobilized with goat F(ab′)2 anti-human Fc (Jackson ImmunoResearch) to a response level of ˜4000 RU. Fc variants and wild type Fc were diluted to 100 nM in HBS-EP+ and captured on the surface of the chip for 120 seconds at a flow rate of 10 μL/min. Fcγ receptors (human and cyno, all purchased from R&D Systems) and complement (C1Q, purchased from Quidel Corporation and Complement Technology, Inc) were diluted in HBS-EP+ and then flowed as analytes at 30 μL/min for 120 seconds followed by a 120 seconds dissociation. Regeneration was achieved by flowing 10 mM glycine pH 1.7 at 30 μL/min for 30 seconds followed by a 60 seconds stabilization. Flow cell 1 was always left as a blank (no captured protein) for purposes of background signal subtraction. Blank-subtracted sensorgrams for each captured Fc variant were inspected for the presence of binding to any of the Fcγ receptor proteins or complement. There are polymorphisms in the Human Fc receptors IIA and RIIIA, so both sequences were tested for binding.

[2] = target: T1, Fc gamma receptor RIIB/C on CHO-K1SV …; test: flow cytometry, CHO-K1SV transfectants
Procedure: CHO-K1SV cells stably transfected with a series of FcγR receptors were incubated with each of the […] listed in Table 23. A typical experiment labeled approximately 100,000 cells per well, in 96-well plates, with a range of binding molecule concentrations of 1 to 1000 nM, in 100 μl of PBS buffer with 0.2% BSA and 2 mM EDTA, for 30 minutes on ice, followed by washes and incubation with PE-labeled minimum cross species reactive secondary antibody, goat anti-human IgG Fcγ, F(ab′)2 ([…]) for 30 minutes to 1 hour on ice. Signal from bound molecules was detected using a LSR-II™ flow cytometer (BD Biosciences) and analyzed by FlowJo flow cytometry analysis software. Mean fluorescence intensity (MFI) of bound molecules on cells was determined after exclusion of doublets.

[3] = target: T2, Full-length Cyno 4-1BB; test: flow cytometry on Jurkat cells transfected with cynomolgus 4-1BB, goat anti-human Fc secondary antibody, MFI (Mean)
[4] = target: T3, Full-length Human OX40; test: flow cytometry, CHO cells expressing human OX40
[5] = target: T5, Fc gamma receptor RI (human, UniProt P12314 16-288); test: SPR, construct immobilized, receptor injected at 100 nM
T5 construct: also called FcγRI
Procedure: (§1) Fcγ receptor binding to bispecific proteins was measured by Surface Plasmon Resonance on a Biacore 8K instrument at room temperature. Bispecific proteins with modified Fc regions to reduce binding to Fcγ receptors were directly immobilized on the surface of a CM5 sensor chip to a surface density of 4000 RU. A bispecific ADAPTIR™ protein with a wild type Fc was similarly immobilized to the surface as a positive control and used as a comparator to evaluate the reduction in binding resulting from changes incorporated into the Fc region amino acid sequence. Fcγ receptors (purchased from R&D Systems) were diluted to either 100 nM (FcγRI) or 2 μM (all other Fcγ receptors) in HBS-EP+ buffer before injecting over the surface of the prepared sensor chip at 30 μL/min for 60 seconds. Maximum RU values during association phase of each injection were used to compare the extent of binding of the modified Fc to wild type value and are reported in Table 17 below.

[6] = target: Full-length Human 4-1BB (human, UniProt Q07011 24-255); test: cell-based or functional assay
[7] = target: T3, Full-length Human OX40; test: cell-based or functional assay
[8] = target: T6, Fc gamma receptor RIIIA V176 (human, UniProt P08637 17-208); test: SPR, construct immobilized, receptor injected at 2 uM
T6 construct: soluble SPR analyte
Procedure: as §1

Sequence of Full-length Human 4-1BB (Q07011 24-255): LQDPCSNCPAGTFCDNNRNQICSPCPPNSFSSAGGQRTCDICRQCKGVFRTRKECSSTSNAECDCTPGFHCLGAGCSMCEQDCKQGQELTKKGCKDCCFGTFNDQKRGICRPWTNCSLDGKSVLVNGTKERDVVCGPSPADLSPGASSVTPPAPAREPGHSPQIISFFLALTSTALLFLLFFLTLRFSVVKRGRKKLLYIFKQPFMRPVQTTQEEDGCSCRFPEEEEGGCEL
T5 sequence (P12314 16-288 limits assumed): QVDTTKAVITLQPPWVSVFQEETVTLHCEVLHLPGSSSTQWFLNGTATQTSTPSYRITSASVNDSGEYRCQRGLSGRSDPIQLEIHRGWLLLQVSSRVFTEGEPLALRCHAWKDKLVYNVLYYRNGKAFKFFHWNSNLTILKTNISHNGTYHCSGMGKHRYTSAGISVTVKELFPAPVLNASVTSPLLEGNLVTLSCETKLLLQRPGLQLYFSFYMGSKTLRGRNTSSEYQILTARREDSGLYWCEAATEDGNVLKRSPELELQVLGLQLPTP
T4 sequence (P02745 23-245 limits assumed, chain 1 of 3): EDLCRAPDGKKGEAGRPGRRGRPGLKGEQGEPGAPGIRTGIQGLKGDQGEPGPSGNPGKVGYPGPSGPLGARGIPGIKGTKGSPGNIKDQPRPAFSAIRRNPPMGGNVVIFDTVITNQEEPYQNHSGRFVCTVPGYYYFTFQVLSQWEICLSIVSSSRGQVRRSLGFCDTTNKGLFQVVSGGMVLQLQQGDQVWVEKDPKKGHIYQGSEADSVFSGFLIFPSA
T4 sequence (P02746 28-253 limits assumed, chain 2 of 3): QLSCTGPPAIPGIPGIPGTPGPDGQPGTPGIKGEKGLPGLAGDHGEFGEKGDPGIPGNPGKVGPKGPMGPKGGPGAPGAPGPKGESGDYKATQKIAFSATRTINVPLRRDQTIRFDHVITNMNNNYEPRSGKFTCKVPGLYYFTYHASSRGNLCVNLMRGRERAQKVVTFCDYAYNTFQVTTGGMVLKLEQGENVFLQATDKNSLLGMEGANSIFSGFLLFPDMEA
T4 sequence (P02747 29-245 limits assumed, chain 3 of 3): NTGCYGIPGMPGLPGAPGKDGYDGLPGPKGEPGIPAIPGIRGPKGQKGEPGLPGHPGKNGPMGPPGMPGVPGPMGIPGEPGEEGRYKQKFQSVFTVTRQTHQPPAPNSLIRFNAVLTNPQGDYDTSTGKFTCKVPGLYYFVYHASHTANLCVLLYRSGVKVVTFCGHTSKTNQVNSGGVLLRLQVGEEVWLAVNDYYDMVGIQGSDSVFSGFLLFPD
T6 sequence (P08637 17-208 F176V): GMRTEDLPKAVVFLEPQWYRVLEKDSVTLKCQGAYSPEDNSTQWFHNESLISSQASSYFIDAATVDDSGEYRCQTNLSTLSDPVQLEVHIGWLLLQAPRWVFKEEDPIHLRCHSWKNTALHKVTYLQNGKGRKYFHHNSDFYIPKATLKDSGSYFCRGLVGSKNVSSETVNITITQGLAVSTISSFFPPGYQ

Row | EC50 (read off the curve) [3] [nM] | EC50 [4] [nM] | max MFI [4] [MFI] | Max RU value during association [5] [RU] | 4-1BB Reporter Assay EC50 [6] [nM] | 4-1BB Reporter Assay Max induction [6] | OX40 Reporter Assay EC50 [7] [nM] | OX40 Reporter Assay Max induction [7] | Binder | also measured
1 | – | – | – | – | – | – | – | – | TSC 1005 (other, IgG1 Fc with E233P, L234V, L235A, deletion of G236, G237A, K322A (EU); also called PVAdel TSC01005) EPKSSDKTHTCPPCPAPPVAAPSVFLFPPKPKDTLMISRTPEVTCVVVDVSHEDPEVKFNWYVDGVEVHNAKTKPREEQYNSTYRVVSVLTVLHQDWLNGKEYKCAVSNKALPAPIEKTISKAKGQPREPQVYTLPPSRDELTKNQVSLTCLVKGFYPSDIAVEWESNGQPENNYKTTPPVLDSDGSFFLYSKLTVDKSRWQQGNVFSCSVMHEALHNHYTQKSLSLSPG | binding result [1]: no binding; binding result [2]: no binding (tested: 1 to 1000 nM)
2 | ~0.3 | 0.31 | 10500 | 0 | 0.019 | 6.96e+06 | 0.011 | 2.03e+06 | FXX01101 (bispecific antibody, ADAPTIR anti-4-1BB (HL) x anti-OX40 with T86R; PAA (del) Fc; also called FX01101) EVQLVQSGAEVKKPGASVKVSCKASGYTFTSYWMNWVRQAPGQGLEWMGNIYPSGGSTNYAQKFQGRVTMTVDTSTSTVYMELSSLRSEDTAVYYCASFSDGYYAYAMDYWGQGTLVTVSSGGGGSGGGGSGGGGSGGGGSEIVMTQSPATLSLSPGERATLSCRASQSVSSYLNWYQQKPGQAPRLLIYYASRRHTGIPARFSGSGSGTDFTLTISSLQPEDFAVYYCQQGYNLPYTFGQGTKVEIKEPKSSDKTHTCPPCPAPPAAAPSVFLFPPKPKDTLMISRTPEVTCVVVDVSHEDPEVKFNWYVDGVEVHNAKTKPREEQYNSTYRVVSVLTVLHQDWLNGKEYKCAVSNKALPAPIEKTISKAKGQPREPQVYTLPPSRDELTKNQVSLTCLVKGFYPSDIAVEWESNGQPENNYKTTPPVLDSDGSFFLYSKLTVDKSRWQQGNVFSCSVMHEALHNHYTQKSLSLSPGGGGSPSSYVLTQPPSVSVAPGQTARITCGGNNIGSKSVNWFQQKPGQAPVLVVYDDSGRPSGIPERFSGSTSGNTATLTISRVEAGDEADYYCQVWDSSSDHVVFGGGTKLTVLGGGGSGGGGSGGGGSGGGGSQVQLVESGGGVVQPGRSLRLSCAASGFTLSYYGMHWVRQAPGKGLEWVAAISHDGSDKYYADSVKGRFTISRDNSKNRLYLQMNSLRAEDTAVYYCSNDQFDPWGQGTLVTVSSR | –
3 | – | – | – | – | – | – | – | – | FXX01115 (bispecific antibody, ADAPTIR anti-4-1BB x anti-OX40, pI variant; PAA (del) Fc) EVQLVQSGAEVKKPGASVKVSCKASGYTFTSYWMNWVRQAPGQGLEWMGNIYPSGGSTNYAQKFQGRVTMTVDTSTSTVYMELSSLRSEDTAVYYCASFSDGYYAYAMDYWGQGTLVTVSSGGGGSGGGGSGGGGSGGGGSEIVMTQSPATLSLSPGERATLSCRASQSVSSYLNWYQQKPGQAPRLLIYYASRRHTGIPARFSGSGSGTDFTLTISSLQPEDFAVYYCQQGYNLPYTFGQGTKVEIKEPKSSDKTHTCPPCPAPPAAAPSVFLFPPKPKDTLMISRTPEVTCVVVDVSHEDPEVKFNWYVDGVEVHNAKTKPREEQYNSTYRVVSVLTVLHQDWLNGKEYKCAVSNKALPAPIEKTISKAKGQPREPQVYTLPPSRDELTKNQVSLTCLVKGFYPSDIAVEWESNGQPENNYKTTPPVLDSDGSFFLYSKLTVDKSRWQQGNVFSCSVMHEALHNHYTQKSLSLSPGGGGSPSSYVLTQPPSVSVAPGQTARITCGGNNIGSKSVNWFQQKPGQAPVLVVYDDSGRPSGVPNRFSGSTSGNTATLTISRVEAGDEADYYCQVWDSSSDHVVFGGGTKLTVLGGGGSGGGGSGGGGSGGGGSQVQLVESGGGVVQPGRSLRLSCAASGFTLSYYGMHWVRQAPGKGLEWVAAISHDGSDKYYADSVKGRFTISRDNSKNRLYLQMNSLRAEDTAVYYCSNDQFDPWGQGTLVTVSSR | Max RU value during association [8]: 0 RU
4 | – | – | – | 0 | – | – | – | – | FXX01111 (bispecific antibody, ADAPTIR anti-4-1BB x anti-OX40, pI variant; PAA (del) Fc) EVQLVQSGAEVKKPGASVKVSCKASGYTFTSYWMNWVRQAPGQGLEWMGNIYPSGGSTNYAQKFQGRVTMTVDTSTSTVYMELSSLRSEDTAVYYCASFSDGYYAYAMDYWGQGTLVTVSSGGGGSGGGGSGGGGSGGGGSEIVMTQSPATLSLSPGERATLSCRASQSVSSYLNWYQQKPGQAPRLLIYYASRRHTGIPARFSGSGSGTDFTLTISSLQPEDFAVYYCQQGYNLPYTFGQGTKVEIKEPKSSDKTHTCPPCPAPPAAAPSVFLFPPKPKDTLMISRTPEVTCVVVDVSHEDPEVKFNWYVDGVEVHNAKTKPREEQYNSTYRVVSVLTVLHQDWLNGKEYKCAVSNKALPAPIEKTISKAKGQPREPQVYTLPPSRDELTKNQVSLTCLVKGFYPSDIAVEWESNGQPENNYKTTPPVLDSDGSFFLYSKLTVDKSRWQQGNVFSCSVMHEALHNHYTQKSLSLSPGGGGSPSSYVLTQPPSVSVAPGQTARITCGGNNIGSKSVNWFQQKPGQAPVLVVYDDSGRPSGVPNRFSGSTSGNTATLTISRVEAGDEADYYCQVWDSSSDHVVFGGGTKLTVLGGGGSGGGGSGGGGSGGGGSQVQLVESGGGVVQPGRSLRLSCAASGFTLSYYGMHWVRQAPGKGLEWVAAISHDGSDKYYADSVKGRFTISRDNSKNTLYLQMNSLRAEDTAVYYCSNDQFDPWGQGTLVTVSSR | –
5 | ~0.3 | 0.34 | 10500 | – | 0.014 | 6.94e+06 | 0.01 | 2.05e+06 | FXX01102 (bispecific antibody, ADAPTIR anti-4-1BB (HL) x anti-OX40 with Q17K and T86R; PAA (del) Fc; also called FX01102) EVQLVQSGAEVKKPGASVKVSCKASGYTFTSYWMNWVRQAPGQGLEWMGNIYPSGGSTNYAQKFQGRVTMTVDTSTSTVYMELSSLRSEDTAVYYCASFSDGYYAYAMDYWGQGTLVTVSSGGGGSGGGGSGGGGSGGGGSEIVMTQSPATLSLSPGERATLSCRASQSVSSYLNWYQQKPGQAPRLLIYYASRRHTGIPARFSGSGSGTDFTLTISSLQPEDFAVYYCQQGYNLPYTFGQGTKVEIKEPKSSDKTHTCPPCPAPPAAAPSVFLFPPKPKDTLMISRTPEVTCVVVDVSHEDPEVKFNWYVDGVEVHNAKTKPREEQYNSTYRVVSVLTVLHQDWLNGKEYKCAVSNKALPAPIEKTISKAKGQPREPQVYTLPPSRDELTKNQVSLTCLVKGFYPSDIAVEWESNGQPENNYKTTPPVLDSDGSFFLYSKLTVDKSRWQQGNVFSCSVMHEALHNHYTQKSLSLSPGGGGSPSSYVLTQPPSVSVAPGKTARITCGGNNIGSKSVNWFQQKPGQAPVLVVYDDSGRPSGIPERFSGSTSGNTATLTISRVEAGDEADYYCQVWDSSSDHVVFGGGTKLTVLGGGGSGGGGSGGGGSGGGGSQVQLVESGGGVVQPGRSLRLSCAASGFTLSYYGMHWVRQAPGKGLEWVAAISHDGSDKYYADSVKGRFTISRDNSKNRLYLQMNSLRAEDTAVYYCSNDQFDPWGQGTLVTVSSR | –
